Test [1] addresses T1, human 4Ig-B7H3 (B7H3-4Ig-His) (human, UniProt Q5ZPR3 29-466).
T1 construct: Recombinant His-tagged protein immobilised on a CM5 chip; also called 41g-B7H3; human 4Ig-B7-H3 (dominant isoform); not shown: His tag
T1 sequence: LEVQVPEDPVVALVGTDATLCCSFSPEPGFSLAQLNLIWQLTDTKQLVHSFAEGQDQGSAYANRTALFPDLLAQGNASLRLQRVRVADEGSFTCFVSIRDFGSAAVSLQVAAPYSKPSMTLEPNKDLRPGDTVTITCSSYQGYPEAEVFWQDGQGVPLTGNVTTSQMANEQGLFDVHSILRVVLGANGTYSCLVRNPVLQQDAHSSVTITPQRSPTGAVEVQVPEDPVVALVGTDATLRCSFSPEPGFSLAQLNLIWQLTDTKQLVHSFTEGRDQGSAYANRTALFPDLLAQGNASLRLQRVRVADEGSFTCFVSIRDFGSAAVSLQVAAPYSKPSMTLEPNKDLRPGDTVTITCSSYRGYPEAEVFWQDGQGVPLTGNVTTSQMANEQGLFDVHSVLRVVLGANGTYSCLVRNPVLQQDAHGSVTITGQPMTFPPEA
Briefly: SPR, Biacore T200, 4Ig-B7H3-His on CM5 chip, 1:1 fit. How it is done:
(§1) Both human B7H3 41g and 21g proteins were dissolved in PBS (Phosphate-Buffered Saline) to make 0.1 mg/ml stock solution and stored in −80° C. B7-H3 proteins were immobilized onto the CM5 sensor chip using Amine Coupling Kit. Both proteins were diluted to 10 ug/ml with 10 mM Sodium acetate, pH 5.0. […] A blank immobilized surface was used as a control
(§2) Binding Assays: [0143] 1. Antibodies were diluted in HBS-EP buffer (10 mM HEPES, 150 mM NaCl, 3 mM EDTA, 0.05% Surfactant P20, pH 7.4) at varying concentrations (25-50-100-200-400 nM) prior to analysis. […] 2. Samples (60 ul) were injected over the sensor surface at a flow rate of 30 ul/min over 2 min. [0145] 3. Following completion of the association phase, dissociation was monitored in HBS-EP buffer for 10 min at the same flow rate. […] 4. At the end of each cycle, the surface was regenerated using 10 mM NaOH at a flow rate of 50 ul/min over 2×15 sec.

In test [2] the target is T2, human 2Ig-B7H3 (B7H3-2Ig-His) (human, UniProt Q5ZPR3 29-466).
T2 construct: Recombinant His-tagged protein immobilised on a CM5 chip; also called 21g-B7H3; B7H3-21g-His; not shown: His tag
T2 sequence: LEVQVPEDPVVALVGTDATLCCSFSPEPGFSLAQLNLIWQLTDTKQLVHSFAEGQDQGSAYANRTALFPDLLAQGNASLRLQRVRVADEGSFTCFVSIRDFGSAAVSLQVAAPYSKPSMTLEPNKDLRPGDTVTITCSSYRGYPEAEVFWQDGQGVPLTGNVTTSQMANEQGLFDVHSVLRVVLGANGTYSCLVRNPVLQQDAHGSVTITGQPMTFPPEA
Briefly: SPR, Biacore T200, 2Ig-B7H3-His on CM5 chip, 1:1 fit; unconjugated 8H9, lot S219, Table 3 run. (In SPR one partner is held on a chip, and binding of the other changes the refractive index at the surface.)

Test [3] deals with T2, human 2Ig-B7H3 (B7H3-2Ig-His). Description: SPR, Biacore T200, 2Ig-B7H3-His on CM5 chip, 1:1 fit. The method, then: as §1
(§3) The data were analyzed by the 1:1 fitting model and default parameter setting for the rate constants using the Biacore T200 Evaluation Software, and the apparent association on rate constant (kon, ka), dissociation off rate constant (koff, kd) and equilibrium dissociation constant (KD=kd/ka) were calculated.

For test [4], the target named is T1, human 4Ig-B7H3 (B7H3-4Ig-His). Description: SPR, Biacore T200, 4Ig-B7H3-His on CM5 chip, 1:1 fit. How it is done: as §1, §3
This is another data set of the same source.

Test [5] has as its target T2, human 2Ig-B7H3 (B7H3-2Ig-His). Briefly: SPR, Biacore T200, 2Ig-B7H3-His on CM5 chip, 1:1 fit; unconjugated 8H9, lot PHB800, Table 3 run.
Test [6] shares this target. Description: SPR, Biacore T200, 2Ig-B7H3-His on CM5 chip, 1:1 fit; * beyond fitting limits. How it is done:
as §1, §2, §3

For test [7] the target is unchanged. Briefly: SPR, Biacore T200, 2Ig-B7H3-His on CM5 chip, 1:1 fit; * beyond fitting limits; unconjugated 8H9, lot S219, Table 3 run.
The target is the same in test [8]. Description: SPR, Biacore T200, 2Ig-B7H3-His on CM5 chip, 1:1 fit. The method, then: as §1, §2, §3
The source holds these as a separate data set.

The target is the same in test [9]. Description: SPR, Biacore T200, 2Ig-B7H3-His on CM5 chip, 1:1 fit; unconjugated 8H9, lot P76501A, Table 5 run.
The target in the next test is T3, recombinant mouse B7-H3 (mouse, UniProt Q8VE98 29-244, limits assumed).
T3 sequence (looked up): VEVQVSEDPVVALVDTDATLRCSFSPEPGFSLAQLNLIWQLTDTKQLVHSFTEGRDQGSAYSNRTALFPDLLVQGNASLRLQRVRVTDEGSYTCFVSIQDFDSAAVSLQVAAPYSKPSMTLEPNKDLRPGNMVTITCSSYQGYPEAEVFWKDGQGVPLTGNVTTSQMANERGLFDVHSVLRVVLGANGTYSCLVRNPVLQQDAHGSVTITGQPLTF
Briefly: SPR, triplicate.

The next test addresses T4, recombinant rat B7-H3 (rat, UniProt Q7TPB4 29-244, limits assumed).
T4 sequence (looked up): T3 sequence (looked up) with A33R, S62A, N131D, V156L, L214M
Description: SPR, triplicate.

From US20230293738A1 (Y MABS THERAPEUTICS, published 2023) come the findings set out here.

Substitutions are numbered along the chain they refer to. Values joined by “and” are separate entries in the source; they are usually repeats but may differ in a detail not shown here. Equal entries are not always repeated. Where two headings read alike, the source gives them in different places.

B1: 8H9 antibody comprising a light chain according to SEQ ID No.: 2 and heavy chain according to SEQ ID No.: 1 (antibody, mouse IgG1, kappa, V domains shown)
VH: QVQLQQSGAELVKPGASVKLSCKASGYTFTNYDINWVRQRPEQGLEWIGWIFPGDGSTQYNEKFKGKATLTTDTSSSTAYMQLSRLTSEDSAVYFCARQTTATWFAYWGQGTLVTVSA
VL: DIVMTQSPATLSVTPGDRVSLSCRASQSISDYLHWYQQKSHESPRLLIKYASQSISGIPSRFSGSGSGSDFTLSINSVEPEDVGVYYCQNGHSFPLTFGAGTKLELKR
notes: Unconjugated mouse IgG1 mAb; also called m8H9; murine 8H9
One may read the Kd as the constant that tells how readily two partners part at equilibrium. For orientation: koff means a measure of how fast the partners let go of each other. Read a high koff as fast dissociation. Usually kon stands for the second-order rate constant of association. Lower therefore signals slower complex formation. On to B1, for which the dissociation constant Kd was 4.07 nM and 3.78 nM and 3.69 nM in test [1]; below 0.244 nM in test [2]; 3.18 nM and 3.13 nM in [4]; below 0.23 nM in [5]; 0.0123 nM in test [8]; below 0.186 nM in [9]. Further, the koff in [1] is 0.000102 s⁻¹ and 0.000101 s⁻¹ and 9.48e-05 s⁻¹; in test [4], 9.11e-05 s⁻¹ and 8.73e-05 s⁻¹; in [6] it was 2.38e-07 s⁻¹ and 5.68e-07 s⁻¹; in test [7], below 1e-05 s⁻¹. Besides, the kon in test [1] is 25200 M⁻¹ s⁻¹ and 26700 M⁻¹ s⁻¹ and 25700 M⁻¹ s⁻¹; in [3], 53800 M⁻¹ s⁻¹ and 47100 M⁻¹ s⁻¹; in [4], 28600 M⁻¹ s⁻¹ and 27900 M⁻¹ s⁻¹; in test [8], 43400 M⁻¹ s⁻¹ and 46200 M⁻¹ s⁻¹ and 40900 M⁻¹ s⁻¹. Moreover, the “t ½” value is 1.88 h and 1.91 h and 2.03 h in test [1]; 72.9 days and 169 days in [3]; 2.11 h and 2.21 h in test [4]. For the same molecule, the binding result with recombinant mouse B7-H3 and in the test with recombinant rat B7-H3 was “no binding (tested: 3 µg/mL)” each time.
